Assay results: patent publication US20250034212A1, “PEPTIDE” (PEPTIDREAM INC., priority 2021, published 2025)
One block for each binder: values may come before it. Starred links: 1 amine or outer side, 2 acyl side, 3 side chain; linkers in the order of their positions; H or OH if unused. Positions of bridges follow the written chain, without caps; N, C: chain ends. Non-standard residues stand in square brackets, D forms with d. No end group written: not given here. KCOmeglumine = N6-(methyl-((2S,3R,4R,5R)-2,3,4,5,6-pentahydroxyhexyl)carbamoyl)-L-lysine, CN(C[C@H](O)[C@@H](O)[C@H](O)[C@H](O)CO)C(=O)NCCCC[C@H](N[*:1])C(=O)[*:2]; KCOpipzaa = N6-(4-(carboxymethyl)piperazine-1-carbonyl)-L-lysine, O=C(NCCCC[C@H](N[*:1])C(=O)[*:2])N1CCN(CC(=O)[*:3])CC1; 1Nal = N[C@@H](Cc1cccc2ccccc12)C(=O)O; Gly(NCH2CH2Ph) = O=C(O)CNCCc1ccccc1; 4Pal = N[C@@H](Cc1ccncc1)C(=O)O

How the values were obtained:
[1] = target: T1, recombinant human TGF-β1 (R&D systems) (human, UniProt P01137 279-390); experiment: SPR, TGF-β1 immobilised, single cycle kinetics
T1 construct: Bought protein; immobilised on a CM3 chip (SPR) or on Dynabeads (ELISA), added to cells in the SBE reporter assay; also called TGF-β1 beads
Experimental: Subsequently, 50 μL of 60 mM EDC solution (Global Life Science Technologies Japan Co., Ltd.) and 50 μL of 650 mM NHS solution (Global Life Science Technologies Japan Co., Ltd.) were mixed. Next, the reaction was carried out at a flow rate of 10 μL/min for 420 seconds. Then, 150 μL of 0.2 μM TGF-β solution diluted in 10 mM acetic acid solution (pH 5.0) was prepared and reacted at a flow rate of 10 μL/min for 420 seconds to immobilize TGF-β on the CM3 sensor chip. TGF-β was human-derived TGF-β1 or β2 (recombinant human TGF-β1, 2) and was obtained from R&D systems. After immobilization, capping was performed by reacting with 1.0 M ethanolamine aqueous solution (Global Life Science Technologies Japan Co., Ltd.) at a flow rate of […] for 420 seconds.
A liquid prepared by dissolving each peptide at 10 mM in DMSO solution was diluted with running buffer to prepare a peptide-dissolved solution at a final concentration of 10 μM. Subsequently, 50 nM, 25 nM, 12.5 nM, 5 nM, and 2.5 nM peptide solutions were prepared. Using the above samples, the kinetics of each peptide against TGF-β was obtained by SPR measurement.
The kinetics evaluation model was Single Cycle Kinetics, and curve fitting was performed using Biacore T200 Evaluation Software Version 3.0 (Global Life Science Technologies Japan Co., Ltd.). The binding of various peptides to TGF-β was evaluated by performing least-squares curve fitting on the obtained sensorgram to calculate the KD value.

[2] = target: T1, recombinant human TGF-β1 (R&D systems); experiment: cell-based or functional assay

T1 sequence (P01137 279-390 limits assumed): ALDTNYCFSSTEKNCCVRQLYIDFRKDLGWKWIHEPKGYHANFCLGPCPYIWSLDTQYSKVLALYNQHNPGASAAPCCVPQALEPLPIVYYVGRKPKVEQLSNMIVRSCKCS

B1: TGFb1_014 (peptide)
peptide: {CH2CO}-F[1Nal]V[KCOmeglumine]NV[4Pal]DD[Gly(NCH2CH2Ph)]V[1Nal]YHVCG-NH2
modifications: thioether N-16
SMILES: CC(C)[C@@H]1NC(=O)CN(CCc2ccccc2)C(=O)[C@H](CC(=O)O)NC(=O)[C@H](CC(=O)O)NC(=O)[C@H](Cc2ccncc2)NC(=O)[C@H](C(C)C)NC(=O)[C@H](CC(N)=O)NC(=O)[C@H](CCCCNC(=O)N(C)C[C@H](O)[C@@H](O)[C@H](O)[C@H](O)CO)NC(=O)[C@H](C(C)C)NC(=O)[C@H](Cc2cccc3ccccc23)NC(=O)[C@H](Cc2ccccc2)NC(=O)CSC[C@@H](C(=O)NCC(N)=O)NC(=O)[C@H](C(C)C)NC(=O)[C@H](Cc2c[nH]cn2)NC(=O)[C@H](Cc2ccc(O)cc2)NC(=O)[C@H](Cc2cccc3ccccc23)NC1=O
notes: cyclic peptide; C-terminal G is a linker
Kd [1]: 0.66 nM
SBE reporter % inhibition, peptide 0.075 nM [2]: 0%
SBE reporter % inhibition, peptide 0.75 nM [2]: 64.8%
SBE reporter % inhibition, peptide 7.5 nM [2]: 97.2%
SBE reporter % inhibition, peptide 75.0 nM [2]: 98.8%

B4: TGFb1_003 (peptide)
peptide: {CH2CO}-FWVVNVYDD[Gly(NCH2CH2Ph)]V[1Nal]YHVCG
modifications: thioether N-16
notes: as for B1
Kd [1]: 0.72 nM
SBE reporter % inhibition, peptide 0.075 nM [2]: 1.6%
SBE reporter % inhibition, peptide 0.75 nM [2]: 65.2%
SBE reporter % inhibition, peptide 7.5 nM [2]: 97.3%
SBE reporter % inhibition, peptide 75.0 nM [2]: 98.8%

Further binders by falling Kd [1], results first:

Kd [1]: 0.62 nM
SBE reporter % inhibition, peptide 0.075 nM [2]: 6.1%
SBE reporter % inhibition, peptide 0.75 nM [2]: 76.3%
SBE reporter % inhibition, peptide 7.5 nM [2]: 97.9%
SBE reporter % inhibition, peptide 75.0 nM [2]: 100%
B2: TGFb1_011 (peptide)
peptide: {CH2CO}-F[1Nal]VVNV[4Pal]D[KCOpipzaa][Gly(NCH2CH2Ph)]V[1Nal]YHVCG-NH2
modifications: thioether N-16
SMILES: CC(C)[C@@H]1NC(=O)CN(CCc2ccccc2)C(=O)[C@H](CCCCNC(=O)N2CCN(CC(=O)O)CC2)NC(=O)[C@H](CC(=O)O)NC(=O)[C@H](Cc2ccncc2)NC(=O)[C@H](C(C)C)NC(=O)[C@H](CC(N)=O)NC(=O)[C@H](C(C)C)NC(=O)[C@H](C(C)C)NC(=O)[C@H](Cc2cccc3ccccc23)NC(=O)[C@H](Cc2ccccc2)NC(=O)CSC[C@@H](C(=O)NCC(N)=O)NC(=O)[C@H](C(C)C)NC(=O)[C@H](Cc2c[nH]cn2)NC(=O)[C@H](Cc2ccc(O)cc2)NC(=O)[C@H](Cc2cccc3ccccc23)NC1=O
notes: as for B1

Kd [1]: 0.59 nM
SBE reporter % inhibition, peptide 0.075 nM [2]: 0%
SBE reporter % inhibition, peptide 0.75 nM [2]: 76.9%
SBE reporter % inhibition, peptide 7.5 nM [2]: 98.7%
SBE reporter % inhibition, peptide 75.0 nM [2]: 98.4%
B3: TGFb1_015 (peptide)
peptide: {CH2CO}-F[1Nal]VVNV[4Pal]D[KCOmeglumine][Gly(NCH2CH2Ph)]V[1Nal]YHVCG-NH2
modifications: thioether N-16
SMILES: CC(C)[C@@H]1NC(=O)CN(CCc2ccccc2)C(=O)[C@H](CCCCNC(=O)N(C)C[C@H](O)[C@@H](O)[C@H](O)[C@H](O)CO)NC(=O)[C@H](CC(=O)O)NC(=O)[C@H](Cc2ccncc2)NC(=O)[C@H](C(C)C)NC(=O)[C@H](CC(N)=O)NC(=O)[C@H](C(C)C)NC(=O)[C@H](C(C)C)NC(=O)[C@H](Cc2cccc3ccccc23)NC(=O)[C@H](Cc2ccccc2)NC(=O)CSC[C@@H](C(=O)NCC(N)=O)NC(=O)[C@H](C(C)C)NC(=O)[C@H](Cc2c[nH]cn2)NC(=O)[C@H](Cc2ccc(O)cc2)NC(=O)[C@H](Cc2cccc3ccccc23)NC1=O
notes: as for B1

Kd [1]: 0.58 nM
SBE reporter % inhibition, peptide 0.075 nM [2]: 2.7%
SBE reporter % inhibition, peptide 0.75 nM [2]: 53%
SBE reporter % inhibition, peptide 7.5 nM [2]: 94.8%
SBE reporter % inhibition, peptide 75.0 nM [2]: 99.6%
B5: TGFb1_009 (peptide)
peptide: {CH2CO}-F[1Nal]VVNV[4Pal]DD[Gly(NCH2CH2Ph)]V[1Nal][4Pal]HVCG
modifications: thioether N-16; not fully specified (C-terminus)
notes: as for B1
